Assay results reported in the supplement of paper PMC12764529.
± gives the half width of the 95% confidence interval.

Experiment: folding stability dG unfold (combined trypsin and chymotrypsin); higher = more stable
How it was run: (§1)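 Unfolding free energy was derived, per protease or combined, by relating Bayesian-fitted K50 values from sequencing counts to a sequence-predicted unfolded-state K50 and a shared folded-state K50. The underlying digests exposed cysteine-free mini-proteins under 80 residues, in a PA-tagged cDNA display construct, to trypsin and chymotrypsin at 11 threefold-diluted concentrations and to a no-protease condition. A filter kept only designs with AlphaFold2 dimer inter-PAE above 15.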

Row | Sequence | folding stability dG unfold
1 | ATVTITDVSFDPETNTITVTVTVTGPDGTTTTFTATFRIEPAPPPAPPAPVYVVDDDGKVYNLDTGEWKDVS [r1_270_TrROS_Hall] | 2.21 ± 0.054 kcal/mol
2 | SAGGMPKTITVERTLDVDPAVLASTTPEELVARVVEELRAEGVPISSVDPQTITRGATTVTVRVTLLESAGG [r13_432_JUSTAS] | 2.08 ± 0.029 kcal/mol
3 | SAGGSAGGSAGMELKIKVTLTPPGAPVPLTLELEVESEEEARERLEKEYPDREIELEVLESAGGSAGGSAGG [r17_428_JUSTAS] | 0.143 ± 0.093 kcal/mol
4 | SAGGSMKPVKKTIVILKPSSVTEEEVKEEVVEKAKELGLKVKPIRTEVYPLPDYYLVVVEVEIEVPPESAGG [r13_351_TrMRF] | 1.38 ± 0.21 kcal/mol
5 | SAGGEFEVEELPPGGLLLVTFRAPADLPLEIPLEFTSPDGSPVEVAEYEREPFGDYVLITVLVRVPDSAGGS [r16_499_TrMRF] | 2.73 ± 0.18 kcal/mol
6 | SAGGSAGGSAGGLLKLKLKLKYEFTFKDENGNTYKVEKELTLVLELPPINETGKKNLVLSAGGSAGGSAGGS [r10_168_TrMRF] | 3.12 ± 0.13 kcal/mol
7 | SAGGSAGGSAGPFTIMVIERVPPDDPEYDKLHKDNGMPPENMIRIKIFRFKSPEQLKELFSAGGSAGGSAGG [r11_83_TrROS] | 2.08 ± 0.086 kcal/mol
8 | SAGAKVTVEPVKVEPLPNGEVKVTAKVTIYDPNTTKPTEIEVTGTYKLHPNGKPVKPETIVAEAIKKAASAG [r5_604_TrMRF] | 0.459 ± 0.14 kcal/mol
9 | SAGGPVLVLVEVEAGFDGRPRLRRLVLPVELRPDGTVDLDAVRRAVEELLPPDWRILRIEVVPPDAPFSAGG [r13_504_TrMRF] | 1.58 ± 0.047 kcal/mol
10 | SAGGSAGGSAGKVIKLEELKKKFPNMSPEELAAFFKKLGYKVEVVKVGDVPYVFLSPGEKSAGGSAGGSAGG [r11_707_TrMRF] | 3.33 ± 0.049 kcal/mol
11 | SAGGSAGGSAGGMKTLTVTTESLTKEEIIEEIKAMGYPNAKVTVTPSPENPDKYIVNVIESAGGSAGGSAGG [r7_988_JUSTAS] | 0.404 ± 0.18 kcal/mol
12 | SAGGSAGGSAGGSMLPPDTTVTSTTFLPNGTVVNTTTTYTATPDDTYTVTTTTTTTPLTSSAGGSAGGSAGG [r7_249_JUSTAS] | 0.766 ± 0.11 kcal/mol
13 | SAGGSAGGSAGMVVVERTSAPDPDKPTSYWFYTKTTFFPDGSVLSETKKFPSPAELEKATSAGGSAGGSAGG [r11_792_JUSTAS] | 0.992 ± 0.07 kcal/mol
14 | SAGGSAGGPKHVEIVITPDLRKEIEENQKEGDPPTLMEIAKEIAREFRANGMPVDIKILPPEDFSAGGSAGG [r6_815_TrROS] | 0.452 ± 0.23 kcal/mol
15 | SAGGSAGGSAGKIEIIKDKKNGKYTVKIRNKDGEEIEIEVDSLEELEELAKKLNIEVEVESAGGSAGGSAGG [r11_1049_TrROS_Hall] | 3.18 ± 0.15 kcal/mol
16 | SAGGSAMLVIEIEVDGKKVTLVIEVPPEMTEEEIRELAEELAERLRALPGVKEVKVKIERVPPPPESAGGSA [r15_246_TrROS_Hall] | 3.85 ± 0.26 kcal/mol
17 | SAGGSAGGSAGAFVGYRDEGGRYWLRTPEGELELDSEEDALEWADFLRANGIPLLSEPRPSAGGSAGGSAGG [r17_35_TrMRF] | 1.43 ± 0.073 kcal/mol
18 | SAGGSAGGSAGSIGFDSLEEAEKAIEEARRNNVPLTIELRLPDGSTLRIPVDLEIPEDDPSAGGSAGGSAGG [r17_462_TrMRF] | 1.46 ± 0.12 kcal/mol
19 | GSNAVEVTLEVEVTITDPKTPDNKTTTVTIPLTVKLPPSVTSLEELEALARERAEAVAAELGGTVVTVTPVS [r1_300_JUSTAS] | 2.49 ± 0.089 kcal/mol
20 | SAGTITADDITEIEMQWDPGNGYVQIEIEFPNGYTVNAWMPNDKIEIEVWYPNGKKVEIEFEIKPPGASAGG [r19_121_TrROS] | 2.39 ± 0.38 kcal/mol
21 | SAGGMTASSTTLPPSGITSQTTTDPATGVTTTTTRYPDGTVTTTTTTALPPPAAATTTTTTALPGSAAASAG [r5_766_JUSTAS] | 1.77 ± 0.086 kcal/mol

Row | Sequence | folding stability dG unfold
22 | SAGGSAGGSAGLTLEVELPDGKPFPVEVLEVDPGEEDVVVIRVKVKVGDKEYEVTLVLDLSAGGSAGGSAGG [r17_536_TrMRF] | 1.9 ± 0.15 kcal/mol
23 | SAGGMKIEVEVSDSDIESAAERIAKEVYEKIKAEGKNEDVEVTLTLPNGTRYRIVVDGKGNVKEIIESSAGG [r13_965_JUSTAS] | 3.74 ± 0.25 kcal/mol
24 | SAGGSKPEKIKVVSVEVFPDGLIKVKVKTESGYEATALIVKLPGDKYLIFLTIPANGKPFVFELPASAGGSA [r2_361_TrMRF] | 2.54 ± 0.072 kcal/mol
25 | SAGGSADIKIIKLPEKNELVILVPGEFDENVPLVLHDEGGPSWEVVDARVERVGDDLIITAKVRKSSAGGSA [r15_838_TrMRF] | 0.691 ± 0.099 kcal/mol
26 | SAMPIPNKNVVIRAKRSPDGTWDLTITVDNEKLGSKKAKTEEELKALVEEIAKEIAEKLGPGNVTVVEESAG [r14_791_JUSTAS] | 2.69 ± 0.22 kcal/mol
27 | SAGGEIAKRFAKYARDAGYDVRVDVEIIPPDEFPGLKPGKPYVIKVEIEVTPPNGPRRPLGEFTIMINSAGG [r13_874_TrROS] | 2.82 ± 0.08 kcal/mol
28 | SAGGSAGGSAGMVFLDPETRLLLVVHPNGEPELVLLEDGRAVLFHPSTGERREIPLAEIGSAGGSAGGSAGG [r11_297_TrMRF] | 0.263 ± 0.12 kcal/mol
29 | SAGGMVIRVRFRETNETVTLSPEVLEALKRGDPDALRALPEEQREALARIERVEIRPAPPVRVLPEEESAGG [r13_233_TrROS_Hall] | 2.29 ± 0.43 kcal/mol
30 | SKIKIEVDEETGVITVTVEVDNLSEEEILDKLKEELEKLGFEVEVKVVKIEEVNGKVVVTVEIKIKPEKLSA [r9_347_TrROS_Hall] | 1.45 ± 0.093 kcal/mol
31 | SAGGSAGGSAIKKTPNGKYLLKVTFTETYKDKKTGKTYKKTYTKTYVFDKKTNKWKSAEELSAGGSAGGSAG [r3_394_TrROS_Hall] | 2.94 ± 0.33 kcal/mol
32 | SAGGSAKKPEVTVEIEIVLPKEELEELLEALRKLPGLKVEVEEVEVREDGYVRVKLRITLPPGVKPSAGGSA [r15_441_TrROS_Hall] | 3.19 ± 0.12 kcal/mol
33 | SAGGSAGGSSSMVVIEKEFPDLTPEEVEKLAKEIEEKNPELGKVEVKFKPKKKPKPPLTPEAKKSAGGSAGG [r6_825_JUSTAS] | 0.878 ± 0.11 kcal/mol
34 | SAPDPEQRKKNREQQEKNERMIPIQIHVYDKDGKWKPIGPVWFKDPDVPIDDLVPTFHDEGFDYVSISISAG [r14_318_TrROS] | 0.299 ± 0.21 kcal/mol
35 | SMKITATETPVGDKTTVTITVTIDPKEFPNKPPTEEFYKKIAEELMKKLGLKTYNISKTSSNTYTITIVDSA [r9_883_JUSTAS] | 2.5 ± 0.049 kcal/mol
36 | SAGGSAGGSGGMMKVIVSVSPGEEAVEKVNKLVNETDLPPIEVIIIPHSPDDPIVVAILLLLLSAGGSAGGS [r12_649_JUSTAS] | 2.73 ± 0.057 kcal/mol
37 | SAGGSAGGKKPVYEIEITTKDGSKLTIAVKEGEEVEIKITVNGKEISLEDITSIEIRPVELPEESAGGSAGG [r6_222_TrROS_Hall] | 1.94 ± 0.098 kcal/mol
38 | SAGGSAGGGMPPVVTTEISVEEVRPDERDENGNRYFLVTTTLTFPDSTVTTERWLEEEELEELLSAGGSAGG [r6_724_JUSTAS] | 1.09 ± 0.15 kcal/mol
39 | SAGGDPGKPTSVTLTLTVPKDKKTVKLEVTFNPETGEAVITFPGSSKTVTLPFGSLPDVLDAAKKLLYSAGG [r13_439_TrMRF] | 2.49 ± 0.07 kcal/mol
40 | SAGGSAGGMVERPITLRVRVKTPEEVKKLVEELLKPTDAKADVVEEELEDGTVLVTLTIYVPEESAGGSAGG [r6_719_TrMRF] | 1.62 ± 0.042 kcal/mol
41 | SAGGSAGGSMYIVNIKFYNPKTGKVLYIPIKTKKEKAEEIAKELAKKLPEIKYIKAEIKPDISSAGGSAGGS [r12_757_TrMRF] | 1.59 ± 0.19 kcal/mol
42 | SAGGMMEIEVEIEKLEDGTYRIRIRVRLPNGEEVEKEMTFDRETGTLTITFDRPIEPDQIVEIEIEPSAGGS [r16_95_TrROS_Hall] | 4.27 ± 0.19 kcal/mol

Experiment: folding stability dG unfold from trypsin proteolysis; higher = more stable
How it was run: as §1

Row | Sequence | folding stability dG unfold
43 | ATVTITDVSFDPETNTITVTVTVTGPDGTTTTFTATFRIEPAPPPAPPAPVYVVDDDGKVYNLDTGEWKDVS [r1_270_TrROS_Hall] | 2.12 ± 0.048 kcal/mol
44 | SAGGMPKTITVERTLDVDPAVLASTTPEELVARVVEELRAEGVPISSVDPQTITRGATTVTVRVTLLESAGG [r13_432_JUSTAS] | 1.662 ± 0.014 kcal/mol
45 | SAGGSAGGSAGMELKIKVTLTPPGAPVPLTLELEVESEEEARERLEKEYPDREIELEVLESAGGSAGGSAGG [r17_428_JUSTAS] | -0.534 ± 0.072 kcal/mol
46 | SAGGSMKPVKKTIVILKPSSVTEEEVKEEVVEKAKELGLKVKPIRTEVYPLPDYYLVVVEVEIEVPPESAGG [r13_351_TrMRF] | 1.56 ± 0.11 kcal/mol
47 | SAGGEFEVEELPPGGLLLVTFRAPADLPLEIPLEFTSPDGSPVEVAEYEREPFGDYVLITVLVRVPDSAGGS [r16_499_TrMRF] | 2.25 ± 0.16 kcal/mol
48 | SAGGSAGGSAGGLLKLKLKLKYEFTFKDENGNTYKVEKELTLVLELPPINETGKKNLVLSAGGSAGGSAGGS [r10_168_TrMRF] | 2.07 ± 0.036 kcal/mol
49 | SAGGSAGGSAGPFTIMVIERVPPDDPEYDKLHKDNGMPPENMIRIKIFRFKSPEQLKELFSAGGSAGGSAGG [r11_83_TrROS] | 1.82 ± 0.038 kcal/mol
50 | SAGAKVTVEPVKVEPLPNGEVKVTAKVTIYDPNTTKPTEIEVTGTYKLHPNGKPVKPETIVAEAIKKAASAG [r5_604_TrMRF] | 0.426 ± 0.038 kcal/mol
51 | SAGGPVLVLVEVEAGFDGRPRLRRLVLPVELRPDGTVDLDAVRRAVEELLPPDWRILRIEVVPPDAPFSAGG [r13_504_TrMRF] | 1.577 ± 0.011 kcal/mol
52 | SAGGSAGGSAGKVIKLEELKKKFPNMSPEELAAFFKKLGYKVEVVKVGDVPYVFLSPGEKSAGGSAGGSAGG [r11_707_TrMRF] | 2.2 ± 0.065 kcal/mol
53 | SAGGSAGGSAGGMKTLTVTTESLTKEEIIEEIKAMGYPNAKVTVTPSPENPDKYIVNVIESAGGSAGGSAGG [r7_988_JUSTAS] | 0.292 ± 0.091 kcal/mol
54 | SAGGSAGGSAGGSMLPPDTTVTSTTFLPNGTVVNTTTTYTATPDDTYTVTTTTTTTPLTSSAGGSAGGSAGG [r7_249_JUSTAS] | 0.765 ± 0.037 kcal/mol
55 | SAGGSAGGSAGMVVVERTSAPDPDKPTSYWFYTKTTFFPDGSVLSETKKFPSPAELEKATSAGGSAGGSAGG [r11_792_JUSTAS] | 0.793 ± 0.023 kcal/mol
56 | SAGGSAGGPKHVEIVITPDLRKEIEENQKEGDPPTLMEIAKEIAREFRANGMPVDIKILPPEDFSAGGSAGG [r6_815_TrROS] | 0.216 ± 0.07 kcal/mol
57 | SAGGSAGGSAGKIEIIKDKKNGKYTVKIRNKDGEEIEIEVDSLEELEELAKKLNIEVEVESAGGSAGGSAGG [r11_1049_TrROS_Hall] | 2.33 ± 0.16 kcal/mol
58 | SAGGSAMLVIEIEVDGKKVTLVIEVPPEMTEEEIRELAEELAERLRALPGVKEVKVKIERVPPPPESAGGSA [r15_246_TrROS_Hall] | 4.06 ± 0.22 kcal/mol
59 | SAGGSAGGSAGAFVGYRDEGGRYWLRTPEGELELDSEEDALEWADFLRANGIPLLSEPRPSAGGSAGGSAGG [r17_35_TrMRF] | 1.08 ± 0.032 kcal/mol
60 | SAGGSAGGSAGSIGFDSLEEAEKAIEEARRNNVPLTIELRLPDGSTLRIPVDLEIPEDDPSAGGSAGGSAGG [r17_462_TrMRF] | 1.7 ± 0.056 kcal/mol
61 | GSNAVEVTLEVEVTITDPKTPDNKTTTVTIPLTVKLPPSVTSLEELEALARERAEAVAAELGGTVVTVTPVS [r1_300_JUSTAS] | 2.61 ± 0.098 kcal/mol
62 | SAGTITADDITEIEMQWDPGNGYVQIEIEFPNGYTVNAWMPNDKIEIEVWYPNGKKVEIEFEIKPPGASAGG [r19_121_TrROS] | 1.72 ± 0.22 kcal/mol
63 | SAGGMTASSTTLPPSGITSQTTTDPATGVTTTTTRYPDGTVTTTTTTALPPPAAATTTTTTALPGSAAASAG [r5_766_JUSTAS] | 1.93 ± 0.12 kcal/mol
